Results from patent US6759384.
pKi: −log10 of the molar value. Non-standard residues stand in square brackets, D forms with d. *: point of attachment. Phe(4-NH2) = Nc1ccc(C[C@H](N)C(=O)O)cc1; 2Nal = N[C@@H](Cc1ccc2ccccc2c1)C(=O)O; Hyp = O=C(O)[C@@H]1C[C@@H](O)CN1; Cha = N[C@@H](CC1CCCCC1)C(=O)O; Chg = N[C@H](C(=O)O)C1CCCCC1; Tos = Cc1ccc(S(=O)(=O)*)cc1; Cbz = O=C(OCc1ccccc1)*

Target: human factor Xa (Enzyme Research Laboratories, Inc.) (human) (UniProt P00742)
Experiment: chromogenic FXa inhibition

Sequence of human factor Xa (Enzyme Research Laboratories, Inc.) (human) (P00742 41-179 limits assumed, chain 1 of 2): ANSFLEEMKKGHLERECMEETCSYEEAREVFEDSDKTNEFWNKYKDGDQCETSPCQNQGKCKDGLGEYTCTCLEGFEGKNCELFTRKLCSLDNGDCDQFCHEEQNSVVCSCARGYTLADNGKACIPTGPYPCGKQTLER
Sequence of human factor Xa (Enzyme Research Laboratories, Inc.) (human) (P00742 235-488 limits assumed, chain 2 of 2): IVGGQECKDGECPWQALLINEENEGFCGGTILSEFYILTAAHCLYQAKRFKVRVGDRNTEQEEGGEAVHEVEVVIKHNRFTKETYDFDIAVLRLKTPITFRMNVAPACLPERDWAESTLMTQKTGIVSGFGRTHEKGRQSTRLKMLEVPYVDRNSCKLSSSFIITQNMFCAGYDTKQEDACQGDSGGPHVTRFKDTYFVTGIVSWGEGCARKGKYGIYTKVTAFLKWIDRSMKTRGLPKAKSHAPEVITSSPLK

Substance	pKi
Ac-[Phe(4-NH2)][Chg]RL[Hyp]-NH2	> 4.00
Ac-pAph-Chg-Arg (peptide)	> 4.00
Tfa-(iBu)Y-I-PalMe(3)-NH2 (peptide)	> 4.00
Ac-pAph-Chg-NH[4-(1-methyl-pyridinium)methyl] (peptide)	> 4.00
Ac-Nal(2)-Cha-R-D(O-Allyl)-NH2 (peptide)	> 4.00
pal-I-R-C(SBut)-Hyp-NH2 (peptide)	> 4.00
Ac-pAph-Chg-PalMe(3)-NH2 (peptide)	> 4.00
Ac-pAph-Chg-NH-[1-(1-methyl-4-pyridinium)-2-hydroxy]ethyl (peptide)	> 4.00
Ac-pAph-Chg-PalMe(3)-Leu-Pro-NH2 (peptide)	> 4.00
Ac-pAph-Chg-NH-1-[3(N-methylpyridyl)]-1-(methylacetate)ethyl (peptide)	> 4.00
Ac-pAph-Chg-Arg-Pen(CH2COOH)-Pro-NH2 (peptide)	> 4.00
Ac-Y-I-R-NH2 (peptide)	> 4.00
(N-(5-methyl-2-thienoyl)-pAph-Chg-NH-(4-trimethyl-ammonium benzyl) (peptide)	> 4.00
Ac-Pal(4)Me-Chg-Pal(4)Me-Leu-Pro-NH2 (peptide)	> 4.00
Ac-D-pAph-Chg-Arg-(carboxyethyl)Gly-Pro-NH2 (peptide)	> 4.00
Nal(2)-Chg-R-L-P-NH2 (peptide)	> 4.00
(3-pyridoyl)-Nal(2)-Chg-Arg-Leu-Pro-NH2 (peptide)	> 4.00
ClCH2CO-Y-I-R-NH2 (peptide)	> 4.00
Ac-pAph-Pgl-PalMe(3)-NH2 (peptide)	> 4.00
Ac-(nBu)Y-I-R-NH2 (peptide)	> 4.00
Alloc-D-pAph-Chg-Arg-Leu-Pro-NH2 (peptide)	> 4.00
Ac-pAph-Chg-Arg-Leu-OH (peptide)	> 4.00
y-Chg-R-NH2 (peptide)	> 4.00
Alloc-pAph-Chg-PalMe(3)-Pen(CH2COOH)-Pro-NH2 (peptide)	> 4.00

Substance	pKi
Ac-[2Nal][Cha]RLP-NH2	> 4.00
y-Chg-R-L-NH2 (peptide)	> 4.00
Ac-D-pAph-Chg-Arg-Leu-Pro-NH2 (peptide)	> 4.00
Ac-D-pAph-Chg-Arg-Cys-(CH2-COOH)-Pro-NH2 (peptide)	> 4.00
(2-furoyl)-pAph-Chg-NH-1-[3(N-methylpyridyl)]-1-(methylacetate)ethyl (peptide)	> 4.00
(2-benzofuroyl)-Tyr-Chg-Arg-Pen-Pro-NH2 (peptide)	> 4.00
Ac-pAph-Chg-PalMe(3)-NH-(1-methoxycarbonyl)-1-cyclopentyl (peptide)	> 4.00
Ac-pAph-Chg-Dab(CH ═N(CH3)2)-Leu-Pro-NH2 (peptide)	> 4.00
5-Bzim-CO-Chg-R-L-P-NH2 (peptide)	> 4.00
Ac-Y-Chg-R-NH-CH2CH2-N(CH3)4 (peptide)	> 4.00
Ac-pAph-Cha-PalMe(3)-(Me)Leu-Pro-NH2 (peptide)	> 4.00
Ac-pAph-Chg-Dap(CH═N(CH3)2)-Leu-Pro-NH2 (peptide)	> 4.00
Alloc-pAph-Chg-NH-[4-(-methylpyridinium)-methyl] (peptide)	> 4.00
(5-pyrazinoyl)Nal(2)-Chg-Arg-Leu-Pro-NH2 (peptide)	> 4.00
Ac-Y-Chg-R-NH-CH2(2-(6-EtO)benzylthiazolyl) (peptide)	> 4.00
Caff-I-R-NH2 (peptide)	> 4.00
Ac-(3,5,5-Me-3-nHexyl)Y-I-R-NH2 (peptide)	> 4.00
Ac-pAph-Chg-Arg(HOOC-CH2-CH2)Gly-Pro-NH2 (peptide)	> 4.00
Ac-pAph-Chg-Arg-Gla-Pro-NH2 (peptide)	> 4.00
Ac-pAph-Chg-PalMe(3)-Pen(CH2COOH)-Pro-NH2 (peptide)	> 4.00
Ac-D-pAph-Chg-PalMe(3)-Leu-Pro-NH2 (peptide)	> 4.00
Ac-(4-pyridil-CH2-)Y-I-R-NH2 (peptide)	> 4.00
Ac-Pgl(OH)-I-R-L-NH2 (peptide)	> 4.00
Tfa-Y-Chg-R-NH2 (peptide)	> 4.00

Substance	pKi
Ac-pAph-Chg-NH-(4-amidinobenzyl) (peptide)	> 4.00
pAph-Chg-Arg-Leu-Pro-NH2 (peptide)	> 4.00
Ac-Y-I-R-L-P-Dab(Ac-Y-I-R-L-P(G-A)3)-OH (peptide)	> 4.00
Ac-Y-Chg-R-NH-Chx (peptide)	> 4.00
Ac-Y-I-R-L-P-Dab(Ac-Y-I-R-L-P(G-A)6)-OH (peptide)	> 4.00
Tfa-(iBu)Y-Chg-R-NH2 (peptide)	> 4.00
Pgl(OH)-I-R-L-NH2 (peptide)	> 4.00
Ac-Y-Chg-R-NH-CH2CH2-N-(CH3)2 (peptide)	> 4.00
Y-I-R-NH2 (peptide)	> 4.00
(2-pyridoyl)-pAph-Chg-PalMe(3)-NH2 (peptide)	> 4.00
(2-thienylacetyl)-pAph-Chg-NH-(4-trimethyl-ammonium benzyl) (peptide)	> 4.00
Ac-pAph-Chg-PalMe(3)-NH-(3-thienyl-2-carboxylic acid methyl ester) (peptide)	> 4.00
Ac-pAph-Chg-Arg-(HOOC-CH2)Gly-Pro-NH2 (peptide)	> 4.00
(Ethoxycarbonyl)-pAph-Chg-NH-(4-trimethyl-ammonium benzyl) (peptide)	> 4.00
(2-benzofuroyl)-pAph-Chg-PalMe(3)-NH2 (peptide)	> 4.00
Ac-(Bzl)Y-I-R-NH2 (peptide)	> 4.00
(t-Butoxycarbonyl)-pAph-Chg-NH-(4-trimethyl-ammonium benzyl) (peptide)	> 4.00
(pOH)C6H4-CH2CH2(OH)-CO-I-R-L-Sar-NH2 (peptide)	> 4.00
Ac-Y-Chg-R-NH-CH2(2-(1-Et)pyrrolidinyl) (peptide)	> 4.00
Ac-(iBu-Nal(2)-Chg-R-L-P-NH2 (peptide)	> 4.00
Ac-Y-I-R-NH-CH2CH2-N(CH3)2 (peptide)	> 4.00
Ac-Y-Chg-R(NO2)-{ψ(CH2NH)}-L-NH2 (peptide)	> 4.00

The remaining lines, values ahead:

pKi	Substance
> 4.00	Ac-pAph-Chg-Arg-NH2 (peptide)
> 4.00	Ac-Y-Chg-R-NH-CH2-Chx (peptide)
> 4.00	Ac-(4-MeO-Bzl)Y-I-R-NH2 (peptide)
> 4.00	Ac-D-pAph-Chg-Arg-Gla-Pro-NH2 (peptide)
> 4.00	Ac-F(pNH2)-Chg-R-NH2 (peptide)
> 4.00	(2-quinolinoyl)-pAph-Chg-PalMe(3)-NH2 (peptide)
> 4.00	Ac-Y-Chg-R-NH-Bzl-4-OMe (peptide)
> 4.00	Ac-pAph-Chg-Arg-N[1(1,3-dicarboxy)propyl)]Gly-Pro-NH2 (peptide)
> 4.00	Tos-Tyr-Ile-Arg-NH2
> 4.00	Ac-Y-I-R-NH-OCH3 (peptide)
> 4.00	Ac-mAph-Chg-Arg-Leu-Pro-NH2 (peptide)
> 4.00	Tfa-(iBu)Y-I-R-OH (peptide)
> 4.00	Ac-(iBu)Y-I-R-NH2 (peptide)
> 4.00	(2-furoyl)-pAph-Chg-NH-(4-trimethyl-ammonium benzyl) (peptide)
> 4.00	Alloc-pAph-Chg-PalMe(3)-NH2 (peptide)
> 4.00	Ac-D-pAph-Chg-Arg-NH2 (peptide)
> 4.00	Nal(2)-Cha-R-D(O-Allyl)-NH2 (peptide)
> 4.00	Ac-Y-Nva-R-NH2 (peptide)
> 4.00	(2-benzofuroyl)-Phe(pNH2)-Chg-Dab(CH═N(CH3)2)-Leu-Pro-NH2 (peptide)
> 4.00	(2-fluorobenzoyl)-pAph-Chg-NH-(4-trimethyl-ammonium benzyl) (peptide)
> 4.00	Tfa-(iBu)Nal(2)-Chg-R-L-P-NH2 (peptide)
> 4.00	y-Tle-R-Nle-P-NH2 (peptide)
> 4.00	Tfa-(iBu)Y-I-R-NH2 (peptide)
> 4.00	Ac-Y-Chg-R-NH-CH2CH2-O-CH3 (peptide)
> 4.00	Ac-pAph-Chg-PalMe(3)-NH(1-methoxycarbonyl)-1-cyclohexyl (peptide)
> 4.00	(3,4-dichlorobenzoyl)-pAph-Chg-NH-(4-trimethyl-ammonium benzyl) (peptide)

pKi	Substance
> 4.00	Ac-Pal(4)Me-Chg-PalMe(3)-Leu-Pro-NH2 (peptide)
> 4.00	Ac-y-I-R-NH2 (peptide)
> 4.00	5-Hic-Chg-R-NH2 (peptide)
> 4.00	Ac-Y-I-R-NH-CH2-4-Pyridyl (peptide)
> 4.00	Ac-pAph-Chg-Arg-Cys(CH2COOH)-Pro-NH2 (peptide)
> 4.00	(Alloc)-pAph-Chg-Arg-Leu-Pro-NH2 (peptide)
> 4.00	Ac-pAph-Chg-Pal(3)(CH2COOH)-NH2 (peptide)
> 4.00	3-phenoxyproprionic-Y-Chg-R-NH2 (peptide)
> 4.00	y-I-R-NH2 (peptide)
> 4.00	Cbz-Ile-Arg-Leu-NH2
> 4.00	Ac-pAph-Chg-NH-[1-(1-methyl-4-pyridinium)ethyl (peptide)
> 4.00	(iBu)Y-I-R-OH (peptide)
> 4.00	Ac-Nal(2)-Chg-R-NH2 (peptide)
> 4.00	Ph-C(NOCH2Ph)-CO-I-R-NH2 (peptide)
> 4.00	Ac-pAph-Chg-Arg-Leu-NH2 (peptide)
> 4.00	Tfa-(iBu)F(pNH2)-Chg-R-NH2 (peptide)
> 4.00	Ac-D-pAph-Chg-Arg-N[1(1,3-dicarboxy)propyl)]Gly-Pro-NH2 (peptide)
> 4.00	CF3C(O)-(iBu)Tyr-Chg-Arg-OH (peptide)
> 4.00	Ac-Y-I-R-N(Me)O-CH3 (peptide)
> 4.00	Ac-pAph-Chg-NH-(4-trimethyl-ammonium benzyl) (peptide)
> 4.00	Cbz-I-R-NH2 (peptide)
> 4.00	Ac-pAph-Chg-R-L-P-NH2 (peptide)
> 4.00	Nal(2)-Cha-R-D(O-Allyl)-Sar-NH2 (peptide)
> 4.00	Ac-Y-I-R-Piperidyl (peptide)
> 4.00	Ac-Y-I-R-Nle-Hyp (peptide)
